Experimental data as given in the supplement of paper PMC5998384.

Legend:
HeLa Kyoto [1] = assay: thermal stability score vs G1/S (z-score of summed log2 fold changes over temperatures); higher = more thermally stable than in G1/S
HeLa Kyoto [2] = assay: solubility in G1/S (NP-40 vs SDS abundance) (log2 ratio); higher = more soluble; conditions: cell cycle stage: G1/S
HeLa Kyoto [3] = assay: solubility change mitosis vs G1/S (difference of NP-40 vs SDS log2 ratios) (log2 ratio difference); higher = more soluble in mitosis
HeLa Kyoto [4] = assay: melting temperature (median over replicates), in situ; higher = more thermally stable
[5] = cell cycle stage: early G1 (4.5 h after nocodazole release)
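Throughout, for melting temperature (median over replicates), in situ: HeLa Kyoto cells synchronized by double thymidine or nocodazole block, proteins quantified by TMT10plex mass spectrometry, three independent biological replicates.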
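Throughout, for solubility change mitosis vs G1/S (difference of NP-40 vs SDS log2 ratios): synchronized HeLa Kyoto cells (double thymidine block for G1/S, nocodazole release for mitosis), protein amounts in NP-40 versus SDS lysates quantified by mass spectrometry, three biological replicates.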
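Throughout, for solubility in G1/S (NP-40 vs SDS abundance): HeLa Kyoto cells arrested at G1/S by double thymidine block, proteins quantified by TMT10plex mass spectrometry in mild NP-40 versus SDS extracts, three biological replicates.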
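Throughout, for thermal stability score vs G1/S (z-score of summed log2 fold changes over temperatures): synchronized HeLa Kyoto cells, proteins quantified by TMT10plex mass spectrometry, three biological replicates, mitosis taken 0.5 h after nocodazole release, G1/S directly after double thymidine block.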

Sequence | thermal stability score (HeLa Kyoto [1]; [5]) | thermal stability score (HeLa Kyoto [1]; cell cycle stage: mitosis) | solubility in G1/S (log2) (HeLa Kyoto [2]) | solubility change mitosis (log2) (HeLa Kyoto [3]) | melting temperature (HeLa Kyoto [4]; cell cycle stage: G1/S) [°C] | melting temperature (HeLa Kyoto [4]; cell cycle stage: mitosis) [°C]
MSRLLWRKVAGATVGPGPVPAPGRWVSSSVPASDPSDGQRRRQQQQQQQQQQQQQPQQPQVLSSEGGQLRHNPLDIQMLSRGLHEQIFGQGGEMPGEAAVRRSVEHLQKHGLWGQPAVPLPDVELRLPPLYGDNLDQHFRLLAQKQSLPYLEAANLLLQAQLPPKPPAWAWAEGWTRYGPEGEAVPVAIPEERALVFDVEVCLAEGTCPTLAVAISPSAWYSWCSQRLVEERYSWTSQLSPADLIPLEVPTGASSPTQRDWQEQLVVGHNVSFDRAHIREQYLIQGSRMRFLDTMSMHMAISGLSSFQRSLWIAAKQGKHKVQPPTKQGQKSQRKARRGPAISSWDWLDISSVNSLAEVHRLYVGGPPLEKEPRELFVKGTMKDIRENFQDLMQYCAQDVWATHEVFQQQLPLFLERCPHPVTLAGMLEMGVSYLPVNQNWERYLAEAQGTYEELQREMKKSLMDLANDACQLLSGERYKEDPWLWDLEWDLQEFKQKKAKKVKKEPATASKLPIEGAGAPGDPMDQEDLGPCSEEEEFQQDVMARACLQKLKGTTELLPKRPQHLPGHPGWYRKLCPRLDDPAWTPGPSLLSLQMRVTPKLMALTWDGFPLHYSERHGWGYLVPGRRDNLAKLPTGTTLESAGVVCPYRAIESLYRKHCLEQGKQQLMPQEAGLAEEFLLTDNSAIWQTVEELDYLEVEAEAKMENLRAAVPGQPLALTARGGPKDTQPSYHHGNGPYNDVDIPGCWFFKLPHKDGNSCNVGSPFAKDFLPKMEDGTLQAGPGGASGPRALEINKMISFWRNAHKRISSQMVVWLPRSALPRAVIRHPDYDEEGLYGAILPQVVTAGTITRRAVEPTWLTASNARPDRVGSELKAMVQAPPGYTLVGADVDSQELWIAAVLGDAHFAGMHGCTAFGWMTLQGRKSRGTDLHSKTATTVGISREHAKIFNYGRIYGAGQPFAERLLMQFNHRLTQQEAAEKAQQMYAATKGLRWYRLSDEGEWLVRELNLPVDRTEGGWISLQDLRKVQRETARKSQWKKWEVVAERAWKGGTESEMFNKLESIATSDIPRTPVLGCCISRALEPSAVQEEFMTSRVNWVVQSSAVDYLHLMLVAMKWLFEEFAIDGRFCISIHDEVRYLVREEDRYRAALALQITNLLTRCMFAYKLGLNDLPQSVAFFSAVDIDRCLRKEVTMDCKTPSNPTGMERRYGIPQGEALDIYQIIELTKGSLEKRSQPGP [POLG] | 0.521 | 0.308 | 0.0107 | -0.0443 | 50.3 | 50.6
MSRPPPTGKMPGAPETAPGDGAGASRQRKLEALIRDPRSPINVESLLDGLNSLVLDLDFPALRKNKNIDNFLNRYEKIVKKIRGLQMKAEDYDVVKVIGRGAFGEVQLVRHKASQKVYAMKLLSKFEMIKRSDSAFFWEERDIMAFANSPWVVQLFYAFQDDRYLYMVMEYMPGGDLVNLMSNYDVPEKWAKFYTAEVVLALDAIHSMGLIHRDVKPDNMLLDKHGHLKLADFGTCMKMDETGMVHCDTAVGTPDYISPEVLKSQGGDGFYGRECDWWSVGVFLYEMLVGDTPFYADSLVGTYSKIMDHKNSLCFPEDAEISKHAKNLICAFLTDREVRLGRNGVEEIRQHPFFKNDQWHWDNIRETAAPVVPELSSDIDSSNFDDIEDDKGDVETFPIPKAFVGNQLPFIGFTYYRENLLLSDSPSCRETDSIQSRKNEESQEIQKKLYTLEEHLSNEMQAKEELEQKCKSVNTRLEKTAKELEEEITLRKSVESALRQLEREKALLQHKNAEYQRKADHEADKKRNLENDVNSLKDQLEDLKKRNQNSQISTEKVNQLQRQLDETNALLRTESDTAARLRKTQAESSKQIQQLESNNRDLQDKNCLLETAKLKLEKEFINLQSALESERRDRTHGSEIINDLQGRICGLEEDLKNGKILLAKVELEKRQLQERFTDLEKEKSNMEIDMTYQLKVIQQSLEQEEAEHKATKARLADKNKIYESIEEAKSEAMKEMEKKLLEERTLKQKVENLLLEAEKRCSLLDCDLKQSQQKINELLKQKDVLNEDVRNLTLKIEQETQKRCLTQNDLKMQTQQVNTLKMSEKQLKQENNHLMEMKMNLEKQNAELRKERQDADGQMKELQDQLEAEQYFSTLYKTQVRELKEECEEKTKLGKELQQKKQELQDERDSLAAQLEITLTKADSEQLARSIAEEQYSDLEKEKIMKELEIKEMMARHKQELTEKDATIASLEETNRTLTSDVANLANEKEELNNKLKDVQEQLSRLKDEEISAAAIKAQFEKQLLTERTLKTQAVNKLAEIMNRKEPVKRGNDTDVRRKEKENRKLHMELKSEREKLTQQMIKYQKELNEMQAQIAEESQIRIELQMTLDSKDSDIEQLRSQLQALHIGLDSSSIGSGPGDAEADDGFPESRLEGWLSLPVRNNTKKFGWVKKYVIVSSKKILFYDSEQDKEQSNPYMVLDIDKLFHVRPVTQTDVYRADAKEIPRIFQILYANEGESKKEQEFPVEPVGEKSNYICHKGHEFIPTLYHFPTNCEACMKPLWHMFKPPPALECRRCHIKCHKDHMDKKEEIIAPCKVYYDISTAKNLLLLANSTEEQQKWVSRLVKKIPKKPPAPDPFARSSPRTSMKIQQNQSIRRPSRQLAPNKPS [ROCK2] | 0.406 | 1.46 | 0.0267 | -0.132 | 49.8 | 49.4
MSRRSQRLTRYSQGDDDGSSSSGGSSVAGSQSTLFKDSPLRTLKRKSSNMKRLSPAPQLGPSSDAHTSYYSESLVHESWFPPRSSLEELHGDANWGEDLRVRRRRGTGGSESSRASGLVGRKATEDFLGSSSGYSSEDDYVGYSDVDQQSSSSRLRSAVSRAGSLLWMVATSPGRLFRLLYWWAGTTWYRLTTAASLLDVFVLTRRFSSLKTFLWFLLPLLLLTCLTYGAWYFYPYGLQTFHPALVSWWAAKDSRRPDEGWEARDSSPHFQAEQRVMSRVHSLERRLEALAAEFSSNWQKEAMRLERLELRQGAPGQGGGGGLSHEDTLALLEGLVSRREAALKEDFRRETAARIQEELSALRAEHQQDSEDLFKKIVRASQESEARIQQLKSEWQSMTQESFQESSVKELRRLEDQLAGLQQELAALALKQSSVAEEVGLLPQQIQAVRDDVESQFPAWISQFLARGGGGRVGLLQREEMQAQLRELESKILTHVAEMQGKSAREAAASLSLTLQKEGVIGVTEEQVHHIVKQALQRYSEDRIGLADYALESGGASVISTRCSETYETKTALLSLFGIPLWYHSQSPRVILQPDVHPGNCWAFQGPQGFAVVRLSARIRPTAVTLEHVPKALSPNSTISSAPKDFAIFGFDEDLQQEGTLLGKFTYDQDGEPIQTFHFQAPTMATYQVVELRILTNWGHPEYTCIYRFRVHGEPAH [SUN2] | -1.84 | -1.17 | -0.141 | 0.229 | 52.4 | 55.1
MSRSAAASGGPRRPERHLPPAPCGAPGPPETCRTEPDGAGTMNKLRQSLRRRKPAYVPEASRPHQWQADEDAVRKGTCSFPVRYLGHVEVEESRGMHVCEDAVKKLKAMGRKSVKSVLWVSADGLRVVDDKTKDLLVDQTIEKVSFCAPDRNLDKAFSYICRDGTTRRWICHCFLALKDSGERLSHAVGCAFAACLERKQRREKECGVTAAFDASRTSFAREGSFRLSGGGRPAEREAPDKKKAEAAAAPTVAPGPAQPGHVSPTPATTSPGEKGEAGTPVAAGTTAAAIPRRHAPLEQLVRQGSFRGFPALSQKNSPFKRQLSLRLNELPSTLQRRTDFQVKGTVPEMEPPGAGDSDSINALCTQISSSFASAGAPAPGPPPATTGTSAWGEPSVPPAAAFQPGHKRTPSEAERWLEEVSQVAKAQQQQQQQQQQQQQQQQQQQQAASVAPVPTMPPALQPFPAPVGPFDAAPAQVAVFLPPPHMQPPFVPAYPGLGYPPMPRVPVVGITPSQMVANAFCSAAQLQPQPATLLGKAGAFPPPAIPSAPGSQARPRPNGAPWPPEPAPAPAPELDPFEAQWAALEGKATVEKPSNPFSGDLQKTFEIEL [NUMBL] | 2.8 | 2.05 | 0.205 | -0.00185 | 51.9 | 52.3
MSRSPDAKEDPVECPLCMEPLEIDDINFFPCTCGYQICRFCWHRIRTDENGLCPACRKPYPEDPAVYKPLSQEELQRIKNEKKQKQNERKQKISENRKHLASVRVVQKNLVFVVGLSQRLADPEVLKRPEYFGKFGKIHKVVINNSTSYAGSQGPSASAYVTYIRSEDALRAIQCVNNVVVDGRTLKASLGTTKYCSYFLKNMQCPKPDCMYLHELGDEAASFTKEEMQAGKHQEYEQKLLQELYKLNPNFLQLSTGSVDKNKNKVTPLQRYDTPIDKPSDSLSIGNGDNSQQISNSDTPSPPPGLSKSNPVIPISSSNHSARSPFEGAVTESQSLFSDNFRHPNPIPSGLPPFPSSPQTSSDWPTAPEPQSLFTSETIPVSSSTDWQAAFGFGSSKQPEDDLGFDPFDVTRKALADLIEKELSVQDQPSLSPTSLQNSSSHTTTAKGPGSGFLHPAAATNANSLNSTFSVLPQRFPQFQQHRAVYNSFSFPGQAARYPWMAFPRNSIMHLNHTANPTSNSNFLDLNLPPQHNTGLGGIPVAGEEEVKVSTMPLSTSSHSLQQGQQPTSLHTTVA [CNOT4] | 1.12 | 0.182 | 0.401 | 0.0198 | 52.7 | 53
